The source of these data is patent publication US20130287807A1, “COMPOUNDS FOR TREATING SYMPTOMS ASSOCIATED WITH PARKINSON'S DISEASE” (priority 2008, published 2013).

In assay [1] the target is monoclonal antibody MV-001. The experiment in a line: ELISA on peptide-BSA; code 3 = strong binding, OD halfmax 1:>20000.
Assay [2] deals with monoclonal antibody MV-001. The experiment in a line: inhibition ELISA, competitor coated original epitope p4371; code 1 = weaker than original epitope. Background: An ELISA detects its analyte on a solid surface through an enzyme-linked reagent.
For assay [3], the target named is DAEFRH-peptide-specific monoclonal antibody (Example 1). The experiment in a line: inhibition ELISA, competitor plate-bound DAEFRH-C-BSA.

Broadly, the IC50 is the midpoint of a concentration-inhibition curve.

With DEHPFRHC [p4730], the OD halfmax 1:X (dilution factor of the parental antibody at half-maximal OD) (dilutionfactor(1:x)) in assay [1] is more than 20000. The molecule also gave an OD at 10 ug peptide relative to OD of original peptide (inhibition ELISA) in assay [2] of 2 to 3 fold.

In assay [3], EYEFRGC [Peptide 1239] yielded an IC50 of more than 0.5 µg/mL.

Consider ILFRHGC [p4390], for which the OD halfmax 1:X (dilution factor of the parental antibody at half-maximal OD) (dilutionfactor(1:x)) in assay [1] is more than 20000. Besides, the OD at 10 ug peptide relative to OD of original peptide (inhibition ELISA) in assay [2] is 2 to 3 fold.

With DWEFRDAC [Peptide 1241], in assay [3], the IC50 is less than 0.5 µg/mL.

With DRELKIC [Peptide 1237], the IC50 in assay [3] is more than 5 µg/mL.

In assay [3], SYEFRHH [Peptide 4022] came in with an IC50 of less than 0.5 µg/mL.

Regarding SQEFRTP [Peptide 4023], the IC50 in assay [3] was less than 0.5 µg/mL.

As to THTDFRHC [p4725], in assay [1], the OD halfmax 1:X (dilution factor of the parental antibody at half-maximal OD) (dilutionfactor(1:x)) is more than 20000. This molecule returned an OD at 10 ug peptide relative to OD of original peptide (inhibition ELISA) in assay [2] of 2 to 3 fold.

On to TSVFRHC [p4383], for which, in assay [1], the OD halfmax 1:X (dilution factor of the parental antibody at half-maximal OD) (dilutionfactor(1:x)) was more than 20000. In assay [2], this molecule returned an OD at 10 ug peptide relative to OD of original peptide (inhibition ELISA) of 2 to 3 fold.

Consider DAELRY [Peptide 4031], for which the 50% inhibitory concentration (IC50) in assay [3] is less than 0.5 µg/mL.

On to SSEFRVS [Peptide 4024], for which the IC50 in assay [3] was less than 0.5 µg/mL.

The molecule GKEFRT [Peptide 4035] displayed an IC50 in assay [3] of less than 0.5 µg/mL.

Take SWELRQA [Peptide 4020]: in assay [3], the IC50 is more than 0.5 µg/mL.

DKELKIC [Peptide 1236] had an IC50 in assay [3] of more than 5 µg/mL.

On to AYEFRH [Peptide 4036], for which the IC50 in assay [3] was more than 0.5 µg/mL.

The molecule DWELRQ [Peptide 4032] displayed an IC50 in assay [3] of less than 0.5 µg/mL.

As for SLEFRF [Peptide 4033], in assay [3], the IC50 was less than 0.5 µg/mL.

Turning to SEFKHGC [p4381], in assay [1], the OD halfmax 1:X (dilution factor of the parental antibody at half-maximal OD) (dilutionfactor(1:x)) was more than 20000. In assay [2], this molecule had an OD at 10 ug peptide relative to OD of original peptide (inhibition ELISA) of 2 to 3 fold.

GPEFRW [Peptide 4034] showed an IC50 in assay [3] of less than 0.5 µg/mL.

For the molecule DKELRC [Peptide 1238], the IC50 in assay [3] is less than 0.5 µg/mL.

Consider LMFRHNC [p4386], for which the OD halfmax 1:X (dilution factor of the parental antibody at half-maximal OD) (dilutionfactor(1:x)) in assay [1] was more than 20000. For the same molecule, the OD at 10 ug peptide relative to OD of original peptide (inhibition ELISA) in assay [2] is 2 to 3 fold.

In turn, DWEFRD [Peptide 4025] displayed an IC50 in assay [3] of less than 0.5 µg/mL.

Consider SPNQFRHC [p4707], for which the OD halfmax 1:X (dilution factor of the parental antibody at half-maximal OD) (dilutionfactor(1:x)) in assay [1] is more than 20000. This molecule also displayed an OD at 10 ug peptide relative to OD of original peptide (inhibition ELISA) in assay [2] of 2 to 3 fold.

In assay [3], SVEFRYH [Peptide 4021] returned an IC50 of less than 0.5 µg/mL.
